Columns and labels:
[1] = target: ArsR As(III)-responsive transcriptional repressor from Corynebacterium glutamicum (Corynebacterium glutamicum); experiment: crystal structure
crystal structure = target: the molecule itself; experiment: crystal structure

Molecule | stoichiometry N [1] | stoichiometry N (crystal structure)
ArsR As(III)-responsive transcriptional repressor from Corynebacterium glutamicum (natural protein) | 2 | –
ArsR As(III)-responsive transcriptional repressor from Acidithiobacillus ferrooxidans (natural protein) MEPLQDPAQIVARLEALASPVRLEIFRLLVEQEPTGLVSGDIAEHLGQPHNGISFHLKNLQHAGLVTVQREGRYQRYRAAMPVVRALVAYLTENCCHGTRDCALSGETRSPSVQEGNQ | – | 2

— paper PMC6689322 (Journal of structural biology, 2019)
